Measurements taken from article PMC9044958.

Target: recombinant Fc-tagged VEGFR2 extracellular domain (VEGFR2-ECD) (UniProt P35968)
Assay: SPR; Biacore 8K, single-cycle mode, 25°C, HBS-P+ buffer; Fc-tagged VEGFR2-ECD (180 nM) captured on a protein A sensor chip at about 1,400 to 1,700 RU; analytes at 1.25, 2.5, 5, 10 and 20 nM, 30 uL/min; KD from the first on and off rates of the bivalent model

Chain of UniProt P35968 (P35968 20-764): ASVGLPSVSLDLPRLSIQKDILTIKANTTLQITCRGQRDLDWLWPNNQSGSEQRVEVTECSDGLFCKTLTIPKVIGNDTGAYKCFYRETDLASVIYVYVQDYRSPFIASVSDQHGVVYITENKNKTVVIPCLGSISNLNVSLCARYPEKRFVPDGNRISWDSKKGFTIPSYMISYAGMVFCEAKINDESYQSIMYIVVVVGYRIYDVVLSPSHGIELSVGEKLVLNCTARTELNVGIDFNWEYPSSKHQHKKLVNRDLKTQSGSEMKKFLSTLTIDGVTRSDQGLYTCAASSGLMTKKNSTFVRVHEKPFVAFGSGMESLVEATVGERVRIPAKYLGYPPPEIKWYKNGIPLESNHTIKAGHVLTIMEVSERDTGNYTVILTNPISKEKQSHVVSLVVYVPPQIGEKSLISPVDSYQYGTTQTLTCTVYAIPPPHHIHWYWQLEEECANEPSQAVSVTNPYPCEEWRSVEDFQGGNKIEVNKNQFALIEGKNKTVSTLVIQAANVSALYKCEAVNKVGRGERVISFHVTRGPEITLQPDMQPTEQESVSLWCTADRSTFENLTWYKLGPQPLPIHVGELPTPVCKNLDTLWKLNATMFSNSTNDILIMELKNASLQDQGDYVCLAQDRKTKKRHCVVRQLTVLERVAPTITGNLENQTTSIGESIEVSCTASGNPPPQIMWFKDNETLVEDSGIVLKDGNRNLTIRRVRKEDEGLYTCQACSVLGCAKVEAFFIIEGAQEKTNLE

In order of rising Kd:
1. B. henselae-derived BafA passenger domain (BafABhe) (domain or fragment)  2.08 nM
2. recombinant human VEGF-A165 (ligand)  6.91 nM
3. B. bacilliformis-derived BafA passenger domain (BafABba) (domain or fragment)  91.3 nM
